One may read the Kd as the concentration at which binding is half-saturated. High values mean lower affinity, low ones higher affinity. As usually defined, the stoichiometry N is the number of molecules, sites or subunits per partner or assembly.

In PMC8649778 one finds Kd and stoichiometry N data, which are given here for 2 substances.

One experiment addresses human IgG (human). The experiment is described as follows: BLI. In general terms: BLI is a label-free optical method that tracks binding on a fibre tip over time.
The target of experiment [1] is APRc_(110–231)(D140N)His, active site mutant of the soluble domain of APRc (UniProt Q92FY8). Description: shift of migration in nonreducing SDS-PAGE with Western blot.

For the substance “APRc_(110–231)His, soluble domain of APRc fused to a C-terminal His tag (from UniProt Q92FY8 110-231) (domain or fragment)”, in the experiment with human IgG (human), the Kd was determined as 12.6 µM. In the case of “APRc_(110–231)(D140N)His, active site mutant of the soluble domain of APRc (from UniProt Q92FY8 110-231) (domain or fragment)”, the stoichiometry N in experiment [1] stood at 2.
